Reference: publication PMC6745524, “Diverse roles of TssA‐like proteins in the assembly of bacterial type VI secretion systems” (The EMBO Journal, 2019)

Biological target: the molecule itself
Test: cryo-EM structure

B1: TssAVC (TssA of Vibrio cholerae, VCA0119), purified (natural protein)
chain: MEMTEYRQCVAKPISSSNPVGERLVDHPLFDFIEDQMMKVGSLSHASVQWDEVEHSTLKLLGEQSKDIKLLVYLLQCLHNQVTPTRLITSFAVMSEFLNQYWNDSYPAPGPRGNLPRRKFFSQMAQRFTTVIEKFDFHHLDEADRQALQAAVEEWQQAVEKQGLSSELVESVVVRITAEIKRAEQRQQVTAQSSAERETPSAATPSPAASMVVDHSSDKAAKQTLLKVADFLAEQEFGIALSIRLRRFAVWGSITSLPDHKPDGETLLRGMQADRVKDYQDQLRHPDLALWRKVEQSLTMAPYWFEGQWMSYTIAQQLGKSDWCQAIAEETQQFLRRLPSLLELKFKGGEPFVSDSVKEWLASVGQSQGAAGQSVGGDWQEKRKEAFQLAKEGGIAVALSMLNDGLVSAVEPRDKFYWRLLSADLLRANHLDAMAGEQYQTLLNQVTTLSVPEWEPSLVEQIQRYTTSE
notes: The His10 tag was removed with TEV protease; Only the CTD (G376-T466) is built in the atomic model; also called TsaC (proposed name); not shown: His10, N-terminal, cleaved; copies: 12
stoichiometry N: 12
